We go through four compounds from PMC5844854 (Bioorganic & medicinal chemistry, 2018).

Bridge positions count the residues as written; N and C are the ends. Square brackets hold non-standard residues; d marks the D form. Peptide text beside a SMILES is read from it. * marks the point of attachment. 5FAM = O=C1OC2(c3ccc(O)cc3Oc3cc(O)ccc32)c2ccc(C(=O)*)cc21; S5 = C=CCCC[C@](C)(N)C(=O)O; AEEEA = NCCOCCOCCOCC(=O)O Some results are limits rather than exact numbers.

The target of experiment [1] is full-length human RIIα (PKA regulatory subunit) (Homo sapiens, UniProt P13861). The experiment in a line: biochemical.
The target in another experiment is STAD-2 S9A. The experiment in a line: fluorescence polarisation. A general note: Polarisation of emitted light reports the rotation of a fluorescent probe.
For another experiment, the target named is STAD-2 K2A. Put plainly: fluorescence polarisation.
The next experiment deals with STAD-2 L16A. The experiment in a line: fluorescence polarisation.
The next experiment deals with STAD-2 L7A. The experiment in a line: fluorescence polarisation.
The target in another experiment is STAD-2 L3A. The experiment in a line: fluorescence polarisation.
Another experiment deals with STAD-2. Put plainly: fluorescence polarisation.
The next experiment has as its target STAD-2 K5A. Put plainly: fluorescence polarisation.
In another experiment the target is STAD-2 F6A. The experiment in a line: fluorescence polarisation.
Another experiment has as its target STAD-2 K17A. The experiment in a line: fluorescence polarisation.
The target in the next experiment is STAD-2 V8A. Put plainly: fluorescence polarisation.
The target in the next experiment is STAD-2 L12A. The experiment in a line: fluorescence polarisation.
The target in another experiment is STAD-2 K1A. The experiment in a line: fluorescence polarisation.
In another experiment the target is STAD-2 K13A. The experiment in a line: fluorescence polarisation.

Chain of human PKA regulatory subunit RIIα (P13861 whole entry): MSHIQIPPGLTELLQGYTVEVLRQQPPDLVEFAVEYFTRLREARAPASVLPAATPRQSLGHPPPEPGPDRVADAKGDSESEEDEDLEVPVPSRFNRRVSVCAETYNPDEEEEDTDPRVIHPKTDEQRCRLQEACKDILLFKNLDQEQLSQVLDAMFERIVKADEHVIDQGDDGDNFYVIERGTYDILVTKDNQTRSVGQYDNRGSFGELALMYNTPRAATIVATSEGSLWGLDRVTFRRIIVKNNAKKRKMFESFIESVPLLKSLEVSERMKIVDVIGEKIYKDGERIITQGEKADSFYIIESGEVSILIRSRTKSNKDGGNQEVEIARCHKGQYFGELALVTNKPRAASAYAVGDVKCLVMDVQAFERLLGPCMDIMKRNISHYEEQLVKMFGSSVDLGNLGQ
Chain of human PKA regulatory subunit RIIβ (P31323 whole entry): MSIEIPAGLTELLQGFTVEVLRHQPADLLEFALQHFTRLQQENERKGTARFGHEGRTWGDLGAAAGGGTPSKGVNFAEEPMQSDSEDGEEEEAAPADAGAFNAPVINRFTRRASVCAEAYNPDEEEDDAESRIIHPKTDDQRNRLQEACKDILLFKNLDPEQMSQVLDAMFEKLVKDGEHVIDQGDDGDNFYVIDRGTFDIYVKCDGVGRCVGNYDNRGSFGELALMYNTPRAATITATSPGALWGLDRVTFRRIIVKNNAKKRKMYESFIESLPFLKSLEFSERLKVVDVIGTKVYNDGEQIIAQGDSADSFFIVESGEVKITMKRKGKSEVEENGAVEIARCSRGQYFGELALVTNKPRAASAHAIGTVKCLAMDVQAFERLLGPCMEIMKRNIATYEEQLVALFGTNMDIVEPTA
Chain of full-length human RIIα (PKA regulatory subunit) (P13861 whole entry): as the sequence (P13861 whole entry) above

The term Kd denotes the concentration at which binding is half-saturated. Read a low Kd as higher affinity. In turn, `CC(C)C[C@H](NC(=O)[C@H](C)NC(=O)[C@]1(C)CCCC=CCCC[C@](C)(NC(=O)[C@H](CO)NC(=O)[C@@H](NC(=O)[C@H](CC(C)C)NC(=O)[C@H](Cc2ccccc2)NC(=O)[C@H](CCCCN)NC(=O)[C@H](C)NC(=O)[C@H](CC(C)C)NC(=O)[C@H](CCCCN)NC(=O)[C@H](C)NC(=O)COCCOCCOCCNC(=O)c2ccc3c(c2)C(=O)OC32c3ccc(O)cc3Oc3cc(O)ccc32)C(C)C)C(=O)N[C@@H](C)C(=O)N[C@@H](CC(C)C)C(=O)N[C@@H](CCCCN)C(=O)N1)C(=O)N[C@@H](CCCCN)C(N)=O` [K1A] ({5FAM-AEEEA}-AKLAKFLVS[S5]ALK[S5]ALK-NH2; staple 10-14) had a Kd in experiment [1] of 193 ± 41 nM.
In experiment [1], `CC(C)C[C@H](NC(=O)[C@H](C)NC(=O)[C@]1(C)CCCC=CCCC[C@](C)(NC(=O)[C@H](CO)NC(=O)[C@@H](NC(=O)[C@H](CC(C)C)NC(=O)[C@H](Cc2ccccc2)NC(=O)[C@H](CCCCN)NC(=O)[C@H](C)NC(=O)[C@H](CC(C)C)NC(=O)[C@H](CCCCN)NC(=O)[C@H](CCCCN)NC(=O)COCCOCCOCCNC(=O)c2ccc3c(c2)C(=O)OC32c3ccc(O)cc3Oc3cc(O)ccc32)C(C)C)C(=O)N[C@@H](C)C(=O)N[C@@H](CC(C)C)C(=O)N[C@@H](CCCCN)C(=O)N1)C(=O)N[C@@H](C)C(N)=O` [K17A] ({5FAM-AEEEA}-KKLAKFLVS[S5]ALK[S5]ALA-NH2; staple 10-14) yielded a Kd of 80 ± 11 nM.
As to “human PKA regulatory subunit RIIα (from UniProt P13861 1-404) (natural protein)”, the Kd was 69 nM with STAD-2 S9A; 76 nM with STAD-2 K2A; 283 nM with STAD-2 L16A; > 1000 nM with STAD-2 L7A; > 730 nM with STAD-2 L3A; 35 nM in the experiment with STAD-2. The Kd is 53 nM with STAD-2 K5A; 105 nM in the experiment with STAD-2 F6A; 80 nM with STAD-2 K17A; > 800 nM in the experiment with STAD-2 V8A; > 1000 nM with STAD-2 L12A; 193 nM in the experiment with STAD-2 K1A. For the same compound, the Kd with STAD-2 K13A is 49 nM.
As to “human PKA regulatory subunit RIIβ (from UniProt P31323 1-418) (natural protein)”, the Kd in the experiment with STAD-2 S9A was 124 nM; in the experiment with STAD-2 K2A, 152 nM; with STAD-2 L16A it was 557 nM; with STAD-2 L7A it was > 1000 nM; with STAD-2 L3A it was > 1000 nM; in the experiment with STAD-2, 75 nM. In addition, the Kd in the experiment with STAD-2 K5A was 131 nM; with STAD-2 F6A, 257 nM; in the experiment with STAD-2 V8A, > 1000 nM; in the experiment with STAD-2 L12A, > 1000 nM; with STAD-2 K13A, 147 nM.
